Patent US20100111957A1 (TECHNION RESEARCH AND DEVELOPMENT FOUNDATION, published 2010)

B1: H9 Fab (soluble recombinant Fab, monomer) (Fab, V domains shown)
VH: EVQLVQSGAEVKKPGSSVKVSCKASGGTFSSYAISWVRQAPGQGLEWMGGIIPIFGTANYAQKFQGRVTITADESTSTAYMELSSLRSEDTAVYYCARGDLYYYDSSGYPRYYFDYWGQGTLVTVSS
VL: ETTLTQSPGTLSLSPGERATLSCRASQSVSSSYLAWYQQKPGQAPRLVIYGASSRATGIPDRFSGSGSGTDFTLTISRLEPEDFAVYYCQHYSTSPGFTFGQGTKLEIRR
notes: also called Fab H9; H9 Fab monomer
B2: H9 whole IgG antibody (H9 Fab-derived IgG1, kappa) (antibody, V domains shown)
VH: B1 VH
VL: B1 VL
notes: also called H9 IgG; H9 IgG Ab

Experiments:
[1] = biological target: T1, recombinant biotinylated single-chain HLA-A2/pp65 495-503 complex (human; cytomegalovirus (CMV))
[2] = biological target: T1, recombinant biotinylated single-chain …; experiment: SPR, Biacore 2000; biotinylated HLA-A2/pp65 on streptavidin chip

Binder	Kd [1] [nM]	koff [2] [s⁻¹]	kon [2] [M⁻¹ s⁻¹]
B1	8	0.000879	105000
B2	5	0.00352	599000
